Patent US20240150489A1 (ICHNOS SCIENCES, published 2024)

Legend:
[1] = molecular target: T1, recombinant cynomolgus monkey CD38-ECD-C-his (cynomolgus monkey, UniProt Q5VAN0 45-301); test: SPR, His-captured cyno CD38, Fab analyte, 1:1 fit
T1 construct: Extracellular region fused to 6-His; also called cyno CD38-C-His; recombinant cynomolgus monkey CD38 protein
Protocol: (§1) Surface plasmon resonance (SPR) was used to measure the binding affinities of the Fab fragments for human and cynomolgus monkey CD38. Affinities were measured on a Biacore T200 instrument (Biacore, GE Healthcare) at 25° C. and analyzed with the Biacore T200 Evaluation Software (v3.1).
(§2) The affinities to human and cynomolgus monkey CD38 were assessed by immobilizing CD38 and using Fab fragments as analyte. Biotinylated recombinant human CD38 protein was immobilized to around 160 RU on flow-path 2 of a Series S Sensor Chip SA or to around 100 RU on flow-path 2 of a Series S BiotinCAPture Chip and recombinant cynomolgus monkey CD38-his protein was immobilized to around 50-100 RU on flow-path 2 of a Series S CM5 Sensor Chip previously coated with anti-histidin antibody. Fab fragments were injected in single cycle kinetic at different concentrations ranging from 7.8 to 2000 nM, in HBS-EP+ buffer (Biacore, GE Healthcare, catalog NO: BR100669) at a flow rate of 30 μl/min for 3 min on flow-path 1 and 2 (flow-path 1 being used as reference). Dissociation was monitored for 5 min.

[2] = molecular target: T2, recombinant biotinylated human CD38 Avitag, His Tag (Acrobiosystems, CD8-H82E7) (human, UniProt P28907 43-300, biotinylated (Avitag)); test: SPR, biotinylated CD38 captured, Fab analyte, 1:1 fit;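 also: biacore T200 at 25 °C, single-cycle kinetics with Fab injected at 7.8–2000 nM for 3 min, dissociation followed 5 min, reference flow path subtracted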
T2 construct: Bought protein; also called biotinylated human CD38-avi-his protein; biotinylated recombinant human CD38 protein
Protocol: as §1, §2

Kd [1] [nM] | Kd [2] [nM] | Binder
111 | 142 | Anti-CD38-UCP03-H5 Fab (Fab, V domains shown, human IgG1 Fab) VH: QVQLVQSGAEVKKPGSSVKVSCKASGGLFSFYAISWVRQAPGQGLEWMGGIIPFFGEPQYAQKFQGRVTITADESTSTAYMELSSLRSEDTAVYYCARGSYRFDVWGQGTLVTVSA VL: not shown
352 | 437 | Anti-CD38-UCP01-H1 Fab (Fab, V domains shown, human IgG1 Fab) VH: QVQLVQSGAEVKKPGSSVKVSCKASGDFFSGYAINWVRQAPGQGLEWMGRIIPLLGDTYYAQKFQGRVTITADESTSTAYMELSSLRSEDTAVYYCARSAAGWFAYWGQGTLVTVSS VL: not shown
53.5 | 85.3 | Anti-CD38-UCP01-C2 Fab (Fab, V domains shown, human IgG1 Fab) VH: QVQLVQSGAEVKKPGSSVKVSCKASGGYLGIYAISWVRQAPGQGLEWMGRIIPILGEADYAQKFQGRVTITADESTSTAYMELSSLRSEDTAVYYCARGGVWWDYWGQGTLVTVSS VL: not shown
– | 389 | Anti-CD38-UCP02-F6 Fab (Fab, V domains shown, human IgG1 Fab) VH: EVQLLESGGGLVQPGGSLRLSCAASGFTFSFYDMSWVRQAPGKGLEWVSAVSLYGDETYYADSVKGRFTISRDNSKNTLYLQMNSLRAEDTAVYYCAREPVSYDYYGSYFDYWGQGTLVTVSS VL: not shown
– | 595 | Anti-CD38-UCP02-B1 Fab (Fab, V domains shown, human IgG1 Fab) VH: QVQLVQSGAEVKKPGSSVKVSCKASGGQFSFYAINWVRQAPGQGLEWMGEIIPDYGVTHYAQKFQGRVTITADESTSTAYMELSSLRSEDTAVYYCARWSYTYGIRYYYKLFDPWGQGTLVTVSS VL: not shown
102 | 193 | Anti-CD38-UCP01-B1 Fab (Fab, V domains shown, human IgG1 Fab) VH: QVQLVQSGAEVKKPGSSVKVSCKASGGDFDQYYISWVRQAPGQGLEWMGRIIPTLGDSQYAQKFQGRVTITADESTSTAYMELSSLRSEDTAVYYCARAVIVSPYYYIYVFDVWGQGTLVTVSS VL: not shown
78 | 133 | Anti-CD38-UCP02-D1 Fab (Fab, V domains shown, human IgG1 Fab) VH: QVQLVQSGAEVKKPGSSVKVSCKASGGDFDQYYISWVRQAPGQGLEWMGRIIPTLGDSQYAQKFQGRVTITADESTSTAYMELSSLRSEDTAVYYCARAVIVSPYYYIYVFDVWGQGTLVTVSS VL: not shown
55.2 | 71.1 | Anti-CD38-UCP02-F5 Fab (Fab, V domains shown, human IgG1 Fab) VH: QVQLVQSGAEVKKPGSSVKVSCKASGGVFSYYTISWVRQAPGQGLEWMGRIIPSLGATHYAQKFQGRVTITADESTSTAYMELSSLRSEDTAVYYCARSDSFYYAYYMDLWGQGTLVTVSS VL: not shown
– | 71.1 | Anti-CD38-UCP02-A7 Fab (Fab, V domains shown, human IgG1 Fab) VH: EVQLLESGGGLVQPGGSLRLSCAASGFTFSFYDMSWVRQAPGKGLEWVSTITLHGGDTYYADSVKGRFTISRDNSKNTLYLQMNSLRAEDTAVYYCARDPSYIYSTSGYFDYWGQGTLVTVSS VL: not shown
829 | 225 | Anti-CD38-UCP03-B6 Fab (Fab, V domains shown, human IgG1 Fab; also called anti-CD38-B6; anti-CD38-B6 Fab) VH: QVQLVQSGAEVKKPGSSVKVSCKASGGHISNSAINWVRQAPGQGLEWMGRVIPVIDDAYYAQKFQGRVTITADESTSTAYMELSSLRSEDTAVYYCARSRGYYGSFYFDIWGQGTLVTVSS VL: not shown
33.5 | 192 | Anti-CD38-UCP02-D5 Fab (Fab, V domains shown, human IgG1 Fab) VH: QVQLVQSGAEVKKPGSSVKVSCKASGGIFSVHAIHWVRQAPGQGLEWMGEIIPVIGEADYAQKFQGRVTITADESTSTAYMELSSLRSEDTAVYYCAREQYYYALGGGFDYWGQGTLVTVSS VL: not shown
– | 1710 | Anti-CD38-UCP02-B7 Fab (Fab, V domains shown, human IgG1 Fab) VH: EVQLVESGGGLVKPGGSLRLSCAASGFSFNEAWMTWVRQAPGKGLEWVGRIKSYSDGGYTGYAAPVKGRFTISRDDSKNTLYLQMNSLKTEDTAVYYCARSPGIPYHYFDVWGQGTLVTVSS VL: not shown
2.7 | 154 | Anti-CD38-UCP02-H1 Fab (Fab, V domains shown, human IgG1 Fab) VH: QVQLVQSGAEVKKPGSSVKVSCKASGDKFNTYAISWVRQAPGQGLEWMGGITPRYDYAHYAQKFQGRVTITADESTSTAYMELSSLRSEDTAVYYCARSWGFRAGYLDYWGQGTLVTVSS VL: not shown
283 | 1120 | Anti-CD38-UCP01-G1 Fab (Fab, V domains shown, human IgG1 Fab) VH: QVQLVQSGAEVKKPGSSVKVSCKASGGGFSKYFITWVRQAPGQGLEWMGGVIPKIGYTSYAQKFQGRVTITADESTSTAYMELSSLRSEDTAVYYCARGSDDYASYSPLDSWGQGTLVTVSS VL: not shown
88.9 | 110 | Anti-CD38-UCP01-E2 Fab (Fab, V domains shown, human IgG1 Fab; also called anti-CD38-E2; anti-CD38-E2 Fab) VH: QVQLVQSGAEVKKPGSSVKVSCKASGGSFSNYAIGWVRQAPGQGLEWMGRIIPVFGSAHYAQKFQGRVTITADESTSTAYMELSSLRSEDTAVYYCARGLGYYLYSSYYFDIWGQGTLVTVSS VL: not shown
– | 0.03 | Anti-CD38-UCP02-E5 Fab (Fab, V domains shown, human IgG1 Fab) VH: QVQLVQSGAEVKKPGSSVKVSCKASGGGFRHYFISWVRQAPGQGLEWMGGIIPAAATPYYAQKFQGRVTITADESTSTAYMELSSLRSEDTAVYYCARGYWHWFDYWGQGTLVTVSS VL: not shown
170 | 115 | Anti-CD38-UCP03-B3 Fab (Fab, V domains shown, human IgG1 Fab) VH: QVQLVQSGAEVKKPGSSVKVSCKASGGDFTLYSISWVRQAPGQGLEWMGRIIPTGANANYAQKFQGRVTITADESTSTAYMELSSLRSEDTAVYYCARSWPSLGSGWFDIWGQGTLVTVSS VL: not shown
195 | 300 | Anti-CD38-UCP03-E3 Fab (Fab, V domains shown, human IgG1 Fab) VH: QVQLVQSGAEVKKPGSSVKVSCKASGGSFSIYAISWVRQAPGQGLEWMGGIIPNSGDTDYAQKFQGRVTITADESTSTAYMELSSLRSEDTAVYYCARGPYDSYGESYFDYWGQGTLVTVSS VL: not shown
393 | 429 | Anti-CD38-UCP01-F1 Fab (Fab, V domains shown, human IgG1 Fab) VH: QVQLVQSGAEVKKPGSSVKVSCKASGGVFSLYTITWVRQAPGQGLEWMGSIIPLLGDPEYAQKFQGRVTITADESTSTAYMELSSLRSEDTAVYYCARYPYPYGSKYFDIWGQGTLVTVSS VL: not shown
14 | 14.2 | Anti-CD38-UCP02-F2 Fab (Fab, V domains shown, human IgG1 Fab) VH: QVQLVQSGAEVKKPGSSVKVSCKASGDVFSLLAIGWVRQAPGQGLEWMGRIIPSLDATHYAQKFQGRVTITADESTSTAYMELSSLRSEDTAVYYCARGRDVLRSYYFDIWGQGTLVTVSS VL: not shown
465 | 117 | Anti-CD38-UCP03-C3 Fab (Fab, V domains shown, human IgG1 Fab) VH: QVQLVQSGAEVKKPGSSVKVSCKASGGKFSNYAISWVRQAPGQGLEWMGRIIPQIGDAAYAQKFQGRVTITADESTSTAYMELSSLRSEDTAVYYCARASFLYYSYYFDYWGQGTLVTVSS VL: not shown
628 | 1390 | Anti-CD38-UCP03-C2 Fab (Fab, V domains shown, human IgG1 Fab) VH: QVQLVQSGAEVKKPGSSVKVSCKASGGTFSNYAISWVRQAPGQGLEWMGGIIPAFGDAGYAQKFQGRVTITADESTSTAYMELSSLRSEDTAVYYCARGRVLYYSYYFDYWGQGTLVTVSS VL: not shown
188 | 305 | Anti-CD38-UCP02-C3 Fab (Fab, V domains shown, human IgG1 Fab) VH: QVQLVQSGAEVKKPGSSVKVSCKASGDYFNNYAINWVRQAPGQGLEWMGRIIPFLDDANYAQKFQGRVTITADESTSTAYMELSSLRSEDTAVYYCARATSPLYSYYFDYWGQGTLVTVSS VL: not shown
